Bridges are numbered along the chain shown (N, C = ends). Where no end group is shown, it is not given here. [ ]: non-standard residue; d: D form. The star is where a group is joined. Acetyl(2-(4-imidazolyl)) = O=C(Cc1c[nH]cn1)*; Aib = CC(C)(N)C(=O)O
T1: human GIP receptor (human, UniProt P48546 22-466)
T1 sequence (looked up): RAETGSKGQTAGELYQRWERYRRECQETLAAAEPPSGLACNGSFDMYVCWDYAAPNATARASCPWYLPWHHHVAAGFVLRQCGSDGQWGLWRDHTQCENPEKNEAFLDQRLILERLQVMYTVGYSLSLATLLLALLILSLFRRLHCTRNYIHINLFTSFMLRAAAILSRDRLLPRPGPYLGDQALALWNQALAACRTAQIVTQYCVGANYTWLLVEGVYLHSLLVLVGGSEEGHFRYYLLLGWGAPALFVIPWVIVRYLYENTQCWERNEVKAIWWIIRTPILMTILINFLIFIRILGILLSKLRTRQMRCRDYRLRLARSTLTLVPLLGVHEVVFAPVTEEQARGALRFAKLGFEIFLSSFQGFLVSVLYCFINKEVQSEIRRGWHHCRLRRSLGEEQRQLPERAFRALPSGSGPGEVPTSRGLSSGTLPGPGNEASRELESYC


The binders below were run against human GCG receptor (human, UniProt P47871 26-477) (assay: cell-based or functional assay).
Sequence of human GCG receptor (P47871 26-477): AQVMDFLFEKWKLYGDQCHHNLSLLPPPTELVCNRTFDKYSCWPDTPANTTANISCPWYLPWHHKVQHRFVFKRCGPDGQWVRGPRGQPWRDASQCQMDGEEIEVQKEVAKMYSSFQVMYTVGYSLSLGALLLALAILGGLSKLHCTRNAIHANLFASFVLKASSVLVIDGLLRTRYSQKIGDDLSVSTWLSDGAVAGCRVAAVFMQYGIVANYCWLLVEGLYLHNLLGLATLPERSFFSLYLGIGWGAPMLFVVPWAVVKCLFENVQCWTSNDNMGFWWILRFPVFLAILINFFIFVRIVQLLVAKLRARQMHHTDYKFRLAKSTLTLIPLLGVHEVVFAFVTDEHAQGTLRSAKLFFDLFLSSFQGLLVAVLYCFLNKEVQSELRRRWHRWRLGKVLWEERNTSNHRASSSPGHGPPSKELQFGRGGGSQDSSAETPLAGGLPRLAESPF

Binder | In vitro activity relative to native peptide (%) vs. Glucagon [%]
H[Aib]QGTFTSDYSKYLDEKRAKEFVQWLLDHHPSSGQPPPSC (bridge 16-20) [triple agonist of SEQ ID NO: 50] | 50.5
H[Aib]QGTFTSDVSSYLDGQAAKEFVAWLLKGC [triple agonist of SEQ ID NO: 6] | < 0.1
H[Aib]EGTFTSDYSIAMDEIHQKDFVDWLLAEC (bridge 16-20) [triple agonist of SEQ ID NO: 54] | 1.4
[Acetyl(2-(4-imidazolyl))][Aib]QGTFTSDYSICMDEIHQKDFVNWLLNTK (bridge 16-20; not fully specified) [triple agonist of SEQ ID NO: 49] | < 0.1
H[Aib]QGTFTSDYSKYLDEKRQKEFVQWLLDTC (bridge 16-20) [triple agonist of SEQ ID NO: 52] | 7.5
H[Aib]QGTFTSDYSKYLDEKRQKEFVQWLLNTC (bridge 16-20) [triple agonist of SEQ ID NO: 51] | 2
H[Aib]QGTFTSDYSIAMDEIHQKDFVNWLLAQC (bridge 16-20) [triple agonist of SEQ ID NO: 55] | 0.7
H[Aib]EGTFTSDYSIAMDEIHQKDFVNWLLAQC (bridge 16-20) [triple agonist of SEQ ID NO: 53] | 8.4
HGQGTFTSDCSKQLDGQAAQEFVAWLLAGGPSSGAPPPS [triple agonist of SEQ ID NO: 44] | < 0.1
HGQGTFTSDCSKYMDGQAAQDFVAWLLAGGPSSGAPPPS [triple agonist of SEQ ID NO: 45] | < 0.1
HGQGTFTSDCSKYLDGQRAQEFVAWLLAGGPSSGAPPPS [triple agonist of SEQ ID NO: 47] | < 0.1
HGQGTFTSDCSKYLDGQRAQDFVNWLLAGGPSSGAPPPS [triple agonist of SEQ ID NO: 48] | < 0.1
HGQGTFTSDCSKYLDEQHAQEFVAWLLAGGPSSGAPPPS [triple agonist of SEQ ID NO: 46] | < 0.1

These binders were tested against T1, human GIP receptor (assay: cell-based or functional assay).

Binder | In vitro activity relative to native peptide (%) vs. GIP [%]
H[Aib]QGTFTSDYSKYLDEKRAKEFVQWLLDHHPSSGQPPPSC (bridge 16-20) [triple agonist of SEQ ID NO: 50] | 2.7
H[Aib]QGTFTSDVSSYLDGQAAKEFVAWLLKGC [triple agonist of SEQ ID NO: 6] | < 0.1
H[Aib]EGTFTSDYSIAMDEIHQKDFVDWLLAEC (bridge 16-20) [triple agonist of SEQ ID NO: 54] | 0.1
[Acetyl(2-(4-imidazolyl))][Aib]QGTFTSDYSICMDEIHQKDFVNWLLNTK (bridge 16-20; not fully specified) [triple agonist of SEQ ID NO: 49] | 3.3
H[Aib]QGTFTSDYSKYLDEKRQKEFVQWLLDTC (bridge 16-20) [triple agonist of SEQ ID NO: 52] | 0.3
H[Aib]QGTFTSDYSKYLDEKRQKEFVQWLLNTC (bridge 16-20) [triple agonist of SEQ ID NO: 51] | 0.1
H[Aib]QGTFTSDYSIAMDEIHQKDFVNWLLAQC (bridge 16-20) [triple agonist of SEQ ID NO: 55] | 2.4
H[Aib]EGTFTSDYSIAMDEIHQKDFVNWLLAQC (bridge 16-20) [triple agonist of SEQ ID NO: 53] | 1.3
HGQGTFTSDCSKQLDGQAAQEFVAWLLAGGPSSGAPPPS [triple agonist of SEQ ID NO: 44] | < 0.1
HGQGTFTSDCSKYMDGQAAQDFVAWLLAGGPSSGAPPPS [triple agonist of SEQ ID NO: 45] | < 0.1
HGQGTFTSDCSKYLDGQRAQEFVAWLLAGGPSSGAPPPS [triple agonist of SEQ ID NO: 47] | < 0.1
HGQGTFTSDCSKYLDGQRAQDFVNWLLAGGPSSGAPPPS [triple agonist of SEQ ID NO: 48] | < 0.1
HGQGTFTSDCSKYLDEQHAQEFVAWLLAGGPSSGAPPPS [triple agonist of SEQ ID NO: 46] | < 0.1

The binders below were run against human GLP-1 receptor (human, UniProt P43220 24-463) (assay: cell-based or functional assay).

Binder | In vitro activity relative to native peptide (%) vs. GLP-1 [%]
H[Aib]QGTFTSDYSKYLDEKRAKEFVQWLLDHHPSSGQPPPSC (bridge 16-20) [triple agonist of SEQ ID NO: 50] | 67.4
H[Aib]QGTFTSDVSSYLDGQAAKEFVAWLLKGC [triple agonist of SEQ ID NO: 6] | 17
H[Aib]EGTFTSDYSIAMDEIHQKDFVDWLLAEC (bridge 16-20) [triple agonist of SEQ ID NO: 54] | 30.6
[Acetyl(2-(4-imidazolyl))][Aib]QGTFTSDYSICMDEIHQKDFVNWLLNTK (bridge 16-20; not fully specified) [triple agonist of SEQ ID NO: 49] | 29.8
H[Aib]QGTFTSDYSKYLDEKRQKEFVQWLLDTC (bridge 16-20) [triple agonist of SEQ ID NO: 52] | 44.1
H[Aib]QGTFTSDYSKYLDEKRQKEFVQWLLNTC (bridge 16-20) [triple agonist of SEQ ID NO: 51] | 14.4
H[Aib]QGTFTSDYSIAMDEIHQKDFVNWLLAQC (bridge 16-20) [triple agonist of SEQ ID NO: 55] | 27.1
H[Aib]EGTFTSDYSIAMDEIHQKDFVNWLLAQC (bridge 16-20) [triple agonist of SEQ ID NO: 53] | 161
HGQGTFTSDCSKQLDGQAAQEFVAWLLAGGPSSGAPPPS [triple agonist of SEQ ID NO: 44] | 1.3
HGQGTFTSDCSKYMDGQAAQDFVAWLLAGGPSSGAPPPS [triple agonist of SEQ ID NO: 45] | 6.6
HGQGTFTSDCSKYLDGQRAQEFVAWLLAGGPSSGAPPPS [triple agonist of SEQ ID NO: 47] | 2.4
HGQGTFTSDCSKYLDGQRAQDFVNWLLAGGPSSGAPPPS [triple agonist of SEQ ID NO: 48] | 1.5
HGQGTFTSDCSKYLDEQHAQEFVAWLLAGGPSSGAPPPS [triple agonist of SEQ ID NO: 46] | 1.4

From patent US20230302148A1, “PHARMACEUTICAL COMPOSITION COMPRISING LONG-ACTING CONJUGATE OF TRIPLE GLUCAGON/GLP-1/GIP RECEPTOR AGONIST” (HANMI PHARM. CO., LTD., priority 2020, published 2023)
